One block for each molecule: values may come before it.
Columns and labels:
[1] = target: T1, human G-CSF receptor on transfected mouse BaF3 cells (mBaF3/hG-CSFR) (human) (UniProt Q99062); assay: cell-based or functional assay
T1 sequence (looked up): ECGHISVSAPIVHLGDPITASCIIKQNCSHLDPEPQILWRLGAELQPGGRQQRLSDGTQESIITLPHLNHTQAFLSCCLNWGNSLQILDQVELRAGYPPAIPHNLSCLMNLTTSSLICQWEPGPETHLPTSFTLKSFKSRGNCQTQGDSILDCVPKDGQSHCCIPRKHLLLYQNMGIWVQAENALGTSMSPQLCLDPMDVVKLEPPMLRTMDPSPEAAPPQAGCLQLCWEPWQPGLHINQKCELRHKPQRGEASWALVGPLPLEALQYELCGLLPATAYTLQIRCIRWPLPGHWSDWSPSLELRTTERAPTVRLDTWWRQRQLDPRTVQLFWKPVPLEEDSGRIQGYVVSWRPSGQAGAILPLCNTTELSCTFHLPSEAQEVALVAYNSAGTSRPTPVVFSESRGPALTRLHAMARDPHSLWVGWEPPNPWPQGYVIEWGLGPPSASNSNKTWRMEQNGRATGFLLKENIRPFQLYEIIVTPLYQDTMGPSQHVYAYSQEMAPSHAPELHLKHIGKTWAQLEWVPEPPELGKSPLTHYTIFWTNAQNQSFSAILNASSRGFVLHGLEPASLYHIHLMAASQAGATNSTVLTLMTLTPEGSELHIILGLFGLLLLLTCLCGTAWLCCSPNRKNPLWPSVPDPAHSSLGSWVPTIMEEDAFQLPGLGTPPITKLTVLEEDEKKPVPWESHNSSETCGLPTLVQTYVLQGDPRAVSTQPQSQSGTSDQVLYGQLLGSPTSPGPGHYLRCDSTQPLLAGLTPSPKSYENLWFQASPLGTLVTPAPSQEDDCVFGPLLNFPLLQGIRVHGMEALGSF

[2] = target: T2, chimeric Flt3/G-CSF receptor on transfected mouse Baf/3 cells (human) (UniProt P36888); assay: cell-based or functional assay
T2 sequence (looked up): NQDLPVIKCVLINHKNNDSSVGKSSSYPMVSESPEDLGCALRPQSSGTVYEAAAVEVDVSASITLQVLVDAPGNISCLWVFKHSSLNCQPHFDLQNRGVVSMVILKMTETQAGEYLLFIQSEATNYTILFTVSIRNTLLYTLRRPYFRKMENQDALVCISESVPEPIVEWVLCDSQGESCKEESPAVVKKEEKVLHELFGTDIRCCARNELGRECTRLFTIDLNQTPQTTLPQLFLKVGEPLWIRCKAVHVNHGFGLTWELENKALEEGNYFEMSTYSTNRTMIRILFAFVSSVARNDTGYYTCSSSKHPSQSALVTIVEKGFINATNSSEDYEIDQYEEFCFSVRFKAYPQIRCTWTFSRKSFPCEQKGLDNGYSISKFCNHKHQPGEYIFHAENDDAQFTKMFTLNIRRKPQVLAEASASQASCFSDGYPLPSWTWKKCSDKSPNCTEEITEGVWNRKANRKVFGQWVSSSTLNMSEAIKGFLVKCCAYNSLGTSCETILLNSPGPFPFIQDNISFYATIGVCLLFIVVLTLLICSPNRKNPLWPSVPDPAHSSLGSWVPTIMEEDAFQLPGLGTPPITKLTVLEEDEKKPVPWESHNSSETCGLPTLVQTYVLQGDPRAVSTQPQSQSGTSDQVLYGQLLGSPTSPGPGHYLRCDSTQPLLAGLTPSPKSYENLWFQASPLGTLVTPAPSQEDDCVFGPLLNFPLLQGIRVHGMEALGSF

Average EC50 (n = 9), BAF3/G-CSF cell proliferation ([3H]-thymidine) [1]: 0.025 nM
Average Rel. Potency, BAF3/G-CSF cell proliferation [1]: 1
Average EC50 (n = 12), BAF3/Flt cell proliferation ([3H]-thymidine) [2]: > 200 nM
Molecule: recombinant human G-CSF (from UniProt P09919 31-204) (ligand)

Average EC50 (n = 9), BAF3/G-CSF cell proliferation ([3H]-thymidine) [1]: > 2 nM
Average EC50 (n = 12), BAF3/Flt cell proliferation ([3H]-thymidine) [2]: 0.03 nM
Average Rel. Potency, BAF3/Flt cell proliferation [2]: 1
B1: recombinant human flt3 ligand (ligand, UniProt P49771 27-185, looked up)
chain: TQDCSFQHSPISSDFAVKIRELSDYLLQDYPVTVASNLQDEELCGGLWRLVLAQRWMERLKTVAGSKMQGLLERVNTEIHFVTKCAFQPPPSCLRFVQTNISRLLQETSEQLVALKPWITRQNFSRCLELQCQPDSSTLPPPWSPRPLEATAPTAPQPP
